Molecular target: T1, mature myostatin (human, UniProt O14793 267-375)
T1 sequence (looked up): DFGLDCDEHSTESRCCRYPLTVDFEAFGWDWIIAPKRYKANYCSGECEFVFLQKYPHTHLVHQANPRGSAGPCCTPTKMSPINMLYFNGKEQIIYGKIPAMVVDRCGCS
Assay: SPR

B1: N-terminal region of myostatin prodomain (PRO43-115) (domain or fragment, human, UniProt O14793 43-115, looked up)
chain: TWRQNTKSSRIEAIKIQILSKLRLETAPNISKDVIRQLLPKAPPLRELIDQYDVQRDDSSDGSLEDDDYHATT
Work on B1 yielded a Kd of 3.7 µM.
